Measurements taken from patent US20030228306A1.

Experiments:
[1] = target: CC-chemokine receptor CCR5 (UniProt P51681); test: flow cytometry on mitogen-stimulated PBMC, m.f.i.
[2] = target: CC-chemokine receptor CCR5 (UniProt P51681); test: cell-based or functional assay

Sequence of UniProt P51681 (P51681 whole entry): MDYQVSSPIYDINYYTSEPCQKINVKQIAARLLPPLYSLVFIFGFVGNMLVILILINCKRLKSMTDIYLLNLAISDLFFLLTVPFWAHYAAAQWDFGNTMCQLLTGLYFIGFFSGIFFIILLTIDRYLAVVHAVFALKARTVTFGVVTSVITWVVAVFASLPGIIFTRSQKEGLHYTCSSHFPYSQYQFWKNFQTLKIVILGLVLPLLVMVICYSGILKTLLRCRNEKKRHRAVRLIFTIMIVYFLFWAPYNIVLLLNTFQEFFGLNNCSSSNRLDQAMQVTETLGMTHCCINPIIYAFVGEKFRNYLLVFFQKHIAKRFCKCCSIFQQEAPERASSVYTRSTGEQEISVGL

Substance: anti-CCR5 monoclonal antibody PA14
- fold difference in m.f.i. against PA9 [1]: 7 fold
- IC50, inhibition of JR-FL entry (luciferase entry assay) [2]: 0.024 µg/mL
- IC50, inhibition of fusion between PM1 cells and HeLa-EnvJR-FL+ cells (RET assay) [2]: 1.7 µg/mL
- IC50 for calcium influx inhibition, ratio against 2D7 [2]: 8 fold

Substance: anti-CCR5 mAb 2D7 (antibody)
- IC50, inhibition of JR-FL entry (luciferase entry assay) [2]: 0.026 µg/mL
- IC50, inhibition of fusion between PM1 cells and HeLa-EnvJR-FL+ cells (RET assay) [2]: 1.6 µg/mL
- K (equal to the IC50 value), inhibition of cell-cell fusion, median effect fit (RET assay) [2]: 0.36 µg/mL
